Assay results: patent US20060148030A1, “Nuclear receptor err y 3” (FUJISAWA PHARMACEUTICAL CO., LTD, priority 2002, published 2006)

Target: T1, PPARα (Homo sapiens, UniProt Q07869)
T1 construct: expressed in transfected cells; host or cells: CV-1 (African green monkey kidney)
T1 sequence (Q07869 1-468): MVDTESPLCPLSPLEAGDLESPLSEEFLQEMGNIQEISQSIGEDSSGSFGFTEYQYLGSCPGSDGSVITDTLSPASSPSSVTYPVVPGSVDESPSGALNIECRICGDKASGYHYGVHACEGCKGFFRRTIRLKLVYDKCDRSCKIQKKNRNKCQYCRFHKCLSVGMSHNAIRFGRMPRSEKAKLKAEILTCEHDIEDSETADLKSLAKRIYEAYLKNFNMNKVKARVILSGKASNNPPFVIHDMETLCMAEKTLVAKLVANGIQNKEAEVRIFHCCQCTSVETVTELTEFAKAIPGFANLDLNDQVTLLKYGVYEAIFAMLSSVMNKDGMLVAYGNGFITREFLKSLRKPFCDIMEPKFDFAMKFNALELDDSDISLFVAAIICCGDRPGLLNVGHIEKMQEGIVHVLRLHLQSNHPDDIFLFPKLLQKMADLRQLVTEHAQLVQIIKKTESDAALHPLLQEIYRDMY
T1 sequence (P19793 1-462 partner): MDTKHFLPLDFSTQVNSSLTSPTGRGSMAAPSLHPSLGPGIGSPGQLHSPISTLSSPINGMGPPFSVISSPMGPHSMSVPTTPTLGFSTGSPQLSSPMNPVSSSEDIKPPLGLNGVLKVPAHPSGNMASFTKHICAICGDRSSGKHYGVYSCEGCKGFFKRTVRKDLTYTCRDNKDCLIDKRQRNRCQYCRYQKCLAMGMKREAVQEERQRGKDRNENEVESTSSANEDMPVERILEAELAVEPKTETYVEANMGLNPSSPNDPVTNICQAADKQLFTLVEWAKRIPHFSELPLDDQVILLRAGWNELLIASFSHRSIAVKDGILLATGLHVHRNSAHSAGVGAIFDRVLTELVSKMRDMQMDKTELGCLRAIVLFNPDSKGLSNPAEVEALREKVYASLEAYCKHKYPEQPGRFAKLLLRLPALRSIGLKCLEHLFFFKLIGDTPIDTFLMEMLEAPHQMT
Assay: Reporter gene assay, ERRγ3 coexisted with PPARα, pGVP2-PPRE1 in CV-1 cells
Type: cell-based
Conditions: 10^−5 M bezafibrate, FIG. 24
Method: Transfection was performed as follows: CV-1 cells were resuspended in DMEM supplemented with 10% fetal bovine serum, 2000 U/l of penicillin G, and 100 mg/l of streptomycin to a concentration of 2×10^5 cells/2.5 ml. This was then seeded to a 6-well plate at 2.5 ml per well, and incubated for 18-24 hours in a CO2 incubator at 37° C. and 5% CO2. 1 μg of each of the expression plasmids for the transcription factors, the luciferase reporter plasmid, and another luciferase reporter plasmid used for normalization of the measured values (pRL-TK), were dissolved in Opti-MEM (Gibco BRL), to a total of 150 μl. […] Luciferase activity was measured using the Dual-Luciferase™ Reporter Assay System (Promega). […] The protocol for measurement was as follows: 50 μl of Luciferase Assay Reagent II was added to each well, stirred for 0.3 seconds, and measured for one second. 50 μl of Stop&Glo™ Reagent was then added, stirred for 0.3 seconds, and measured for one second. The measured values for firefly luciferase activity were corrected by dividing by the value for the Renilla luciferase activity, the internal control. Average values and standard errors were calculated from triplicate samples.
The effect of ligands on the function of ERRγ3 in enhancing the transcriptional activation function of peroxisome proliferator activated receptor (PPAR) α, β, or γ was evaluated using the reporter gene assay (FIG. 24). […]

B1: ERRγ3: novel ERRγ isoform, nuclear receptor protein of 396 amino acids (SEQ ID NO: 2) lacking part of the DNA binding domain (protein, listed as Homo sapiens)
chain: MSNKDRHIDSSCSSFIKTEPSSPASLTDSVNHHSPGGSSDASGSYSSTMNGHQNGLDSPPLYPSAPILGGSGPVRKLYDDCSSTIVEDPQTKCEYMLNSMPKRLCLVCGDIASGYHYGVASCEACKAFFKRTIQGVRLDRVRGGRQKYKRRIDAENSPYLNPQLAQPAKKPYNKIVSHLLVAEPEKIYAMPDPTVPDSDIKALTTLCDLADRELVVIIGWAKHIPGFSTLSLADQMSLLQSAWMEILILGVVYRSLSFEDELVYADDYIMDEDQSKLAGLLDLNNAILQLVKKYKSMKLEKEEFVTLKAIALANSDSMHIEDVEAVQKLQDVLHEALQDYEAGQHMEDPRRAGKMLMTLPLLRQTSTKAVQHFYNIKLEGKVPMHKLFLEMLEAKV
modifying effect on the transcriptional stimulation activity of PPARα: did not show any significant modifying effect
